{"source": "patent US20040091495A1", "about": "(published 2004)", "binders": {"B1": {"name": "GST:Hic^39-261 fusion protein (other)", "chain": "EKEVTTQVATSSNKANKSQTEHMKAAKQVDEYIEKMLSEIQLDRRKHTQNVGLLTKLGAIKTEYLRGLSVSKEKSTAELPSEIKEKLTAAFEQFKKDTLKSGKKVAEAQKKAKDQKEAKQEIEALIVKHKGREIDLDRKKAKAAVTEHLKKLLNDIEKNLKKEQHTHTVELIKNLKDIEKTYLHKLDESTQKAQLQKLIAESQSKLDEAFSKFKNGLSSSSNS", "notes": "main band 54 kDa, partly degraded; Vector-derived residues after the EcoRI site, if any, are not described; also called fusion between GST and the NH2-terminal Hic region; not shown: glutathione S-transferase (GST) encoded by vector pGEX-5X-3 (Pharmacia Biotech); vector-encoded residues between GST and the BamHI cloning site of pGEX-5X-3"}}, "target": "T1, complement factor H (human, UniProt P08603 19-1231, 125I-labelled (Iodobeads) in the blot and bacterial binding assays)", "T1 construct": "also called fH; FH", "T1 sequence (P08603 19-1231 limits assumed)": "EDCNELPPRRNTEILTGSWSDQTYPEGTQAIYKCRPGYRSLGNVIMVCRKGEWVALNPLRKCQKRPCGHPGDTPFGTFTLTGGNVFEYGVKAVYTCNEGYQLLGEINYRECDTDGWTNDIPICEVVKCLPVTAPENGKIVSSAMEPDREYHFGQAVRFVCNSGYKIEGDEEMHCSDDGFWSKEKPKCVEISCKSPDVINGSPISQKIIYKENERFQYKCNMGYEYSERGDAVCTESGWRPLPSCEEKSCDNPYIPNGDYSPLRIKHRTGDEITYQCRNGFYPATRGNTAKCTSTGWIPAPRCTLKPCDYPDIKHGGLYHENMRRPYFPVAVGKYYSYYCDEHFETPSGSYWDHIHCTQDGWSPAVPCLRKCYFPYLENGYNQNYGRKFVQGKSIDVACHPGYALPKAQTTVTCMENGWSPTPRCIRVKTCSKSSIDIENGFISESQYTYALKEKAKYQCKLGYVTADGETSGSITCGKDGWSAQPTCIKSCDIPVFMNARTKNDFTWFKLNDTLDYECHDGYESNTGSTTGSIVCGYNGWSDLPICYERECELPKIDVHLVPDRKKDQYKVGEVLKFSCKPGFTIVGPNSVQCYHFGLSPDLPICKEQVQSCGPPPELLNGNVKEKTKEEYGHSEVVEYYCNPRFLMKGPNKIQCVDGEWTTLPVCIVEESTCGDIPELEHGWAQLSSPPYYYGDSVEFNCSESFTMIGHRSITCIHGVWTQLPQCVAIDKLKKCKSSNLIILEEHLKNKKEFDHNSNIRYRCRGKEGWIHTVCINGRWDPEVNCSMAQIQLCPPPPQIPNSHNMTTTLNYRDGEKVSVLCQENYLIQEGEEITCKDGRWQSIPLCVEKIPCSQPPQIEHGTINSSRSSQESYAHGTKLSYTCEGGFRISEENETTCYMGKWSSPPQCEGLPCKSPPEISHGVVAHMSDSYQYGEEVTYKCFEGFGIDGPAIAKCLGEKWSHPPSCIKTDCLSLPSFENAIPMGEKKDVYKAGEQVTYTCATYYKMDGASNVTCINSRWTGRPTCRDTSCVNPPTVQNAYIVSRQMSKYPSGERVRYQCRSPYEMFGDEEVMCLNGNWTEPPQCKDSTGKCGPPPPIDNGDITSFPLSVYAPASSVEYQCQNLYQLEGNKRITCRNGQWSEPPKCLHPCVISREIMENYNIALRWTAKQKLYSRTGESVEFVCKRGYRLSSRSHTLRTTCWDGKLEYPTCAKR", "test": "SPR (Biacore), GST:Hic39-261 captured on anti-GST antibody chip, fH as analyte, Langmuir 1:1 model, mean ± SD of three experiments"}
{"binder": "B1", "values": [{"measurement": "Ka", "result": "5e+07", "unit": "M⁻¹"}, {"measurement": "Kd", "result": 23, "unit": "nM"}, {"measurement": "koff", "result": 0.00061, "unit": "s⁻¹"}, {"measurement": "kon", "result": 28000, "unit": "M⁻¹ s⁻¹"}]}
